PMC8996148, “Crystal structure of the ternary complex of Leishmania major pteridine reductase 1 with the cofactor NADP^+/NADPH and the substrate folic acid” (Acta Crystallographica. Section F, Structural Biology …, 2022)

Target: the molecule itself
Assay: crystal structure; pre-formed crystals of the native enzyme (sitting drop, 293 K, 12% PEG 4600, 100 mM sodium acetate pH 5.5, 120-160 mM calcium acetate) soaked with 2 mM folate for 15 min; space group P212121, four copies per asymmetric unit; 1.81 Å

B1: Leishmania major pteridine reductase 1 (enzyme)
chain: MTAPTVPVALVTGAAKRLGRSIAEGLHAEGYAVCLHYHRSAAEANALSATLNARRPNSAITVQADLSNVATAPVSGADGSAPVTLFTRCAELVAACYTHWGRCDVLVNNASSFYPTPLLRNDEDGHEPCVGDREAMETATADLFGSNAIAPYFLIKAFAHRVAGTPAKHRGTNYSIINMVDAMTNQPLLGYTIYTMAKGALEGLTRSAALELAPLQIRVNGVGPGLSVLVDDMPPAVWEGHRSKVPLYQRDSSAAEVSDVVIFLCSSKAKYITGTCVKVDGGYSLTRA
notes: Pteridine reductase 1, Leishmania major, UniProtKB Q01782; codon-optimized synthetic DNA in pET-15b; also called LmPTR1; PTR1
stoichiometry N: 4
